The source of these data is the supplement of paper PMC9112550, “Optimization of the antimicrobial peptide Bac7 by deep mutational scanning” (BMC Biology, 2022).
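Note: peptides expressed intracellularly from a pBAD plasmid library in pooled LB shake-flask culture, induced with 0.3% L-arabinose, DNA abundance read by NGS, three biological replicates, DESeq2 with apeglm shrinkage.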

The data set deals with Escherichia coli TOP10. The data set is described as follows: shrunken log2 fold change of peptide-encoding DNA abundance (4.5 h post-induction vs induction); higher = less antimicrobial activity (less host growth inhibition). The note with it: time post-induction: 4.5 h; library: site-saturation at positions 5, 18, 19, 20.
For RRIRLRPPRLPRPRPRPAGLPRP, the “shrunken log2 fold change” value is 0.102. As to RRIRSRPPRLPRPRPRPWVLPRP, the “shrunken log2 fold change” value amounted to 2.29. Turning to RRIRQRPPRLPRPRPRPLEGPRP, the “shrunken log2 fold change” value is -0.0228. As for RRIRWRPPRLPRPRPRPNVGPRP, the “shrunken log2 fold change” value is -0.129. On to RRIRKRPPRLPRPRPRPDQRPRP, for which the “shrunken log2 fold change” value came out at 0.458. For the sequence RRIRTRPPRLPRPRPRPIQPPRP, the “shrunken log2 fold change” value turned out to be 0.00206.

As to RRIRWRPPRLPRPRPRPSIAPRP, the “shrunken log2 fold change” value amounted to 0.0837. Take RRIRCRPPRLPRPRPRPRDNPRP: the “shrunken log2 fold change” value came to 2.6. For the sequence RRIRCRPPRLPRPRPRPIICPRP, the “shrunken log2 fold change” value was -0.442.

For RRIRHRPPRLPRPRPRPDLGPRP, the “shrunken log2 fold change” value worked out at 0.0527. RRIRFRPPRLPRPRPRPCQWPRP: the “shrunken log2 fold change” value was 0.0155.

On to RRIRYRPPRLPRPRPRPVPMPRP, for which the “shrunken log2 fold change” value is -0.158. As for RRIRARPPRLPRPRPRPWPVPRP, the “shrunken log2 fold change” value amounted to 0.558. As to RRIRPRPPRLPRPRPRPMNPPRP, the “shrunken log2 fold change” value stood at 0.00824. Consider RRIRARPPRLPRPRPRPETEPRP, for which the “shrunken log2 fold change” value was found to be 1.39. Consider RRIRHRPPRLPRPRPRPAKRPRP, for which the “shrunken log2 fold change” value was -0.132. For the sequence RRIRNRPPRLPRPRPRPCREPRP, the “shrunken log2 fold change” value is -0.109.

Take RRIRCRPPRLPRPRPRPEQDPRP: the “shrunken log2 fold change” value is -0.0796. Turning to RRIRCRPPRLPRPRPRPQYPPRP, the “shrunken log2 fold change” value was -0.329. For RRIRERPPRLPRPRPRPRNNPRP, the “shrunken log2 fold change” value is -0.441.

In the case of RRIRYRPPRLPRPRPRPGTGPRP, the “shrunken log2 fold change” value turned out to be 0.147.

Turning to RRIRLRPPRLPRPRPRPWNPPRP, the “shrunken log2 fold change” value is -0.059.

Consider RRIRKRPPRLPRPRPRPQKNPRP, for which the “shrunken log2 fold change” value amounted to 0.319. As for RRIRQRPPRLPRPRPRPACYPRP, the “shrunken log2 fold change” value is -0.18.

On to RRIRRRPPRLPRPRPRPFACPRP, for which the “shrunken log2 fold change” value came to 0.152. Next, RRIRWRPPRLPRPRPRPWVRPRP: -0.172; RRIRWRPPRLPRPRPRPNRDPRP: -0.00925. With RRIRPRPPRLPRPRPRPQLYPRP, the “shrunken log2 fold change” value was -0.0926. The result for RRIRWRPPRLPRPRPRPTIPPRP reads -0.109; that for RRIRVRPPRLPRPRPRPTQEPRP, 0.124. Next, RRIRGRPPRLPRPRPRPDWFPRP: 0.448; RRIRDRPPRLPRPRPRPGFIPRP: -0.202; RRIRHRPPRLPRPRPRPKESPRP: -0.069. Next, RRIRVRPPRLPRPRPRPQWTPRP: -0.17. In the case of RRIRMRPPRLPRPRPRPNTNPRP, the “shrunken log2 fold change” value amounted to 0.128.

With RRIRQRPPRLPRPRPRPIGCPRP, the “shrunken log2 fold change” value was determined as 0.0253. The result for RRIRMRPPRLPRPRPRPYYEPRP reads -0.28. Turning to RRIRHRPPRLPRPRPRPGAPPRP, the “shrunken log2 fold change” value was 0.384. The result for RRIRVRPPRLPRPRPRPFAHPRP reads -0.176. The result for RRIRIRPPRLPRPRPRPCNRPRP reads -0.425; that for RRIRKRPPRLPRPRPRPNVMPRP, -0.122. As for RRIRHRPPRLPRPRPRPDSMPRP, the “shrunken log2 fold change” value worked out at 0.0959. Consider RRIRSRPPRLPRPRPRPVGCPRP, for which the “shrunken log2 fold change” value was found to be 0.281. Next, RRIRYRPPRLPRPRPRPIGTPRP: -0.1; RRIRERPPRLPRPRPRPMYQPRP: -0.0801. Regarding RRIRKRPPRLPRPRPRPEMFPRP, the “shrunken log2 fold change” value was determined as 0.0732. For RRIRMRPPRLPRPRPRPYREPRP, the “shrunken log2 fold change” value is -0.0131. The result for RRIRIRPPRLPRPRPRPEWTPRP reads -0.0261; that for RRIRSRPPRLPRPRPRPIYGPRP, -0.306; that for RRIRQRPPRLPRPRPRPNHHPRP, -0.864.
